In the RNAGym collection of RNA variant scans (doi:10.7554/elife.80360):

B1: Twister Ribozyme (parent)
chain: AACACUGCCAAUGCCGGUCCCAAGCCCGGAUAAAAGUGGAGGGGGCGG

Variants of: B1
Assay: self-cleavage, relative activity (ratio to wild type); higher = more cleavage; co-transcriptional
Work on A2C A34U yielded a self-cleavage of 0.0746. With C27U G42U the self-cleavage was 0.177. Work on C8A A35G yielded a self-cleavage of 0.226. U31C G45C showed a self-cleavage of 0.593. Variant C15G C21U has a self-cleavage of 0.0717. For G39U G43A, the self-cleavage was 0.138. In the case of A33G A35U, the self-cleavage is reported as 0.789. In the case of A1G A30U, the self-cleavage is reported as 0.436. G36U G48A showed a self-cleavage of 0.43. Variant C9A G17C has a self-cleavage of 0.0631. A11U C46A showed a self-cleavage of 0.93. C19U C25A showed a self-cleavage of 0.113. U6C G47C showed a self-cleavage of 0.209. Work on U6C G36U yielded a self-cleavage of 0.0917. Variant A40C C46A has a self-cleavage of 0.202. Work on C3G C8G yielded a self-cleavage of 0.153. In the case of G16C A35C, the self-cleavage is reported as 0.394. With C14A G36C the self-cleavage was 0.351. Variant A4U A11G has a self-cleavage of 0.184. Variant U12A A30U has a self-cleavage of 1.15. In the case of C8U A40C, the self-cleavage is reported as 0.202. G7A G29C gave a self-cleavage of 0.12. C5A U31A showed a self-cleavage of 0.438. In the case of C20U G39U, the self-cleavage is reported as 0.15. G45A G48A gave a self-cleavage of 0.785. For C14U C21U, the self-cleavage was 0.141. In the case of G39C C46G, the self-cleavage is reported as 0.126. Variant A40C G43A has a self-cleavage of 0.138. With C8G C25G the self-cleavage was 0.0929. Work on C26U G43U yielded a self-cleavage of 0.111. For C26U G43C, the self-cleavage was 0.0933. In the case of G16U U18G, the self-cleavage is reported as 0.0727. For C3A U31A, the self-cleavage was 0.163. C3A U31C gave a self-cleavage of 0.224. In the case of C3G A33C, the self-cleavage is reported as 0.357. In the case of A2U G41A, the self-cleavage is reported as 0.111. Work on A2U G41C yielded a self-cleavage of 0.175. A1U A11U gave a self-cleavage of 0.0684. Variant C26G A33U has a self-cleavage of 0.135. C26A A34G showed a self-cleavage of 0.156. With C20A G43U the self-cleavage was 0.105. A10C G43A showed a self-cleavage of 0.337. Work on C27U G45C yielded a self-cleavage of 0.354. In the case of C5U C8G, the self-cleavage is reported as 0.132. A4C C8U showed a self-cleavage of 0.108. Variant G7A A40C has a self-cleavage of 0.132. G28C A35G gave a self-cleavage of 0.596. With G28C A35U the self-cleavage was 0.806. G16C G28U gave a self-cleavage of 0.383. Variant U12G G44C has a self-cleavage of 0.681. G29U A33U gave a self-cleavage of 0.911. A4U A35G gave a self-cleavage of 0.0949. For U31G G41C, the self-cleavage was 0.278. For C19A C21G, the self-cleavage was 0.0812. C19A C21A gave a self-cleavage of 0.0702. With A30U the self-cleavage was 0.984. G17U C20A gave a self-cleavage of 0.0851. With C8A A32G the self-cleavage was 0.331. C3A G42C showed a self-cleavage of 0.0718. Work on C20U G36C yielded a self-cleavage of 0.135. For C20G U31G, the self-cleavage was 0.146. For G42U C46U, the self-cleavage was 0.383. Variant A30U U37A has a self-cleavage of 0.742. With C21G A23C the self-cleavage was 0.0558. Variant A2C G47U has a self-cleavage of 0.0503. For C8G C20G, the self-cleavage was 0.0475. Variant G13A G41C has a self-cleavage of 0.17. Work on C25A C46U yielded a self-cleavage of 0.104. For G24C A35C, the self-cleavage was 0.0752. With A1C A40U the self-cleavage was 0.11. In the case of G17A C21G, the self-cleavage is reported as 0.073. For A35C G38A, the self-cleavage was 0.9. Variant C9U U31G has a self-cleavage of 0.69. For A35G U37G, the self-cleavage was 0.585. U18C G29C gave a self-cleavage of 0.0613. Work on G7C G41U yielded a self-cleavage of 0.0511. Variant U37C G38C has a self-cleavage of 0.742. C14A A32G showed a self-cleavage of 0.857. G17A C25G showed a self-cleavage of 0.0728. U6G A10U gave a self-cleavage of 0.204. With C9U G42U the self-cleavage was 0.102. A11G A23U gave a self-cleavage of 0.614. For C3G C27U, the self-cleavage was 0.327. In the case of C26U G42U, the self-cleavage is reported as 0.15. With A10U G13A the self-cleavage was 0.913. A33C U37C showed a self-cleavage of 0.354. For C21A G43C, the self-cleavage was 0.0785. In the case of G39U G42C, the self-cleavage is reported as 0.133. Work on C14U C25G yielded a self-cleavage of 0.627. Work on U37A A40G yielded a self-cleavage of 0.165. C27A G48A showed a self-cleavage of 0.275. With C14U U18A the self-cleavage was 0.635. C25A U31G showed a self-cleavage of 0.127. With G29C A40U the self-cleavage was 0.101. Work on C19U A23G yielded a self-cleavage of 0.219. Work on C9A G28U yielded a self-cleavage of 0.53. C5A G48C showed a self-cleavage of 0.53. Variant C26A G38C has a self-cleavage of 0.395. With A34C G48C the self-cleavage was 0.2. With C25G A34G the self-cleavage was 0.124. Variant G43U G44U has a self-cleavage of 0.398. For G42A G44A, the self-cleavage was 0.377. For C9G G38C, the self-cleavage was 0.4. C25U A32G showed a self-cleavage of 0.804. G7U A22U gave a self-cleavage of 0.0446. Variant C14A G39U has a self-cleavage of 0.198. Work on A4C C20A yielded a self-cleavage of 0.0653. Variant C5U A22C has a self-cleavage of 0.963. C25A C27A gave a self-cleavage of 0.0772. For C9A G42C, the self-cleavage was 0.288. For A11G G17A, the self-cleavage was 0.372. In the case of C15A U18G, the self-cleavage is reported as 0.089. Work on C9G G41U yielded a self-cleavage of 0.122. With C15U G44C the self-cleavage was 0.812. Variant A1U G36U has a self-cleavage of 0.0701. C8G C9G showed a self-cleavage of 0.107. With C8U C20G the self-cleavage was 0.0649. In the case of C8U C20U, the self-cleavage is reported as 0.308. C3U A22C gave a self-cleavage of 0.549. With C3G C15U the self-cleavage was 0.389. With G17A G43U the self-cleavage was 0.123. With A23G C46U the self-cleavage was 0.579. In the case of A2U A35G, the self-cleavage is reported as 0.207. For A10C C27A, the self-cleavage was 0.673. For A23G G29U, the self-cleavage was 0.425. A4C G38U showed a self-cleavage of 0.591. C5A G29C showed a self-cleavage of 0.279. C3G G42A showed a self-cleavage of 0.111. Variant C25U G42C has a self-cleavage of 0.154. With C15A C26A the self-cleavage was 0.0686. Work on G36A G42A yielded a self-cleavage of 0.141. Variant G36U has a self-cleavage of 0.479. For G29A A34U, the self-cleavage was 0.833. C5A C27U gave a self-cleavage of 0.249. In the case of G16U G28C, the self-cleavage is reported as 1.02. With C5A A10G the self-cleavage was 0.705. A1C G28A showed a self-cleavage of 0.174. C14U G41C showed a self-cleavage of 0.343. With A1U A40C the self-cleavage was 0.0671. Variant C26G A30U has a self-cleavage of 0.295. Work on A4G A40C yielded a self-cleavage of 0.0709. A1U A32U gave a self-cleavage of 0.0613. A2C U31A gave a self-cleavage of 0.0563. In the case of U37A G43A, the self-cleavage is reported as 0.145. In the case of C3U C8G, the self-cleavage is reported as 0.0577. G13C G43U gave a self-cleavage of 0.128. For C14G C46U, the self-cleavage was 0.175. In the case of U12G G36C, the self-cleavage is reported as 0.475. For C21U G42C, the self-cleavage was 0.118. For G7A C19A, the self-cleavage was 0.0667. In the case of C25A G45C, the self-cleavage is reported as 0.0975. For A35C A40C, the self-cleavage was 0.154. In the case of C14G A32C, the self-cleavage is reported as 0.12. In the case of C14G A32G, the self-cleavage is reported as 0.117. Variant C5G A30G has a self-cleavage of 0.608. C19G G29A showed a self-cleavage of 0.258. G7C C27U gave a self-cleavage of 0.0315. U6A G29U gave a self-cleavage of 0.767. Variant G16A C25U has a self-cleavage of 0.852. A10U G47A showed a self-cleavage of 0.946. A33C G48C showed a self-cleavage of 1.1. C8U G41U showed a self-cleavage of 0.117. For A23G G47U, the self-cleavage was 0.17. In the case of G16C C19U, the self-cleavage is reported as 0.461. Variant A11C U37G has a self-cleavage of 0.742. Work on G36A G39A yielded a self-cleavage of 0.195. C19U G47A showed a self-cleavage of 0.763.
